Key:
[1] = biological target: mutant mCD1d cytoplasmic tail peptide (…), tyrosine substituted for alanine (mouse); experiment: SPR
[2] = biological target: WT mCD1d cytoplasmic tail peptide (…) (mouse); experiment: SPR

Kd [1]: 2630 nM | Kd [2]: 540 nM
Substance: adaptor protein complex 3 (AP-3) purified from pig brain cytosol
